Assay results taken from PMC11112752 (Biochemistry, 2024).

Legend:
[1] = target: T1, SCOV2 nsp1 (SARS coronavirus 2, UniProt P0DTD1 1-180); assay: EMSA; settings: protein: recombinant; tags: expressed as GST fusion (pGEX); label: biotin; hairpin
[2] = target: T2, SCOV1 nsp1 (SARS coronavirus 1 (Urbani strain), UniProt P0C6X7 1-180); assay: EMSA; prefolded RNA; S and L complexes, n=4; settings: protein: recombinant; tags: expressed as GST fusion (pGEX); untagged 19 kDa form described, tag state in EMSA not explicit; label: biotin; hairpin
[3] = target: T2, SCOV1 nsp1; assay: EMSA; settings: protein: recombinant; tags: expressed as GST fusion (pGEX); untagged 19 kDa form described, tag state in EMSA not explicit; label: biotin; stem-loop (-6.83 kcal/mol, RNAfold)
[4] = target: T2, SCOV1 nsp1; assay: EMSA; 7 uM nsp1; slow-moving complex; settings: protein: recombinant; tags: expressed as GST fusion (pGEX); untagged 19 kDa form described, tag state in EMSA not explicit; label: biotin; hairpin
[5] = target: T1, SCOV2 nsp1; assay: EMSA; 7 uM nsp1; settings: protein: recombinant; tags: expressed as GST fusion (pGEX); label: biotin; hairpin
[6] = target: the molecule itself; assay: pull-down

## AUAUUAGGUUUUUACCUACCCAGGAAAAGCCAACCAACCUCGAU (structured_RNA) [SCOV1-SL1]
[1]
  binding result: binds
[2]
  Kd: 1400 ± 120 nM

## UCCUGCUUCAACAGUGCUUGGACGGAAC (structured_RNA) [control RNA (EMSA kit)]
[3]
  binding result: no binding

## AUUAAAGGUUUAUACCUUCCCAGGUAACAAAACCAACCAACUUUC (structured_RNA) [SCOV2-SL1]
[4]
  binding result: binds
[5]
  binding result: binds

B1: SARS coronavirus 1 nonstructural protein 1 (nsp1) (natural protein)
chain: MESLVLGVNEKTHVQLSLPVLQVRDVLVRGFGDSVEEALSEAREHLKNGTCGLVELEKGVLPQLEQPYVFIKRSDALSTNHGHKVVELVAEMDGIQYGRSGITLGVLVPHVGETPIAYRNVLLRKNGNKGAGGHSYGIDLKSYDLGDELGTDPIEDYEQNWNTKHGSGALRELTRELNGG
[6]
  binding result: binds
